From publication PMC5844954, “Insc:LGN tetramers promote asymmetric divisions of mammary stem cells” (Nature Communications, 2018)

T1: human Insc of the Insc:LGN:Gαi complex (human, UniProt Q1MX18-2 1-532)
T1 construct: human Inscuteable; Same chain as the Insc chain of m16
T1 sequence (looked up): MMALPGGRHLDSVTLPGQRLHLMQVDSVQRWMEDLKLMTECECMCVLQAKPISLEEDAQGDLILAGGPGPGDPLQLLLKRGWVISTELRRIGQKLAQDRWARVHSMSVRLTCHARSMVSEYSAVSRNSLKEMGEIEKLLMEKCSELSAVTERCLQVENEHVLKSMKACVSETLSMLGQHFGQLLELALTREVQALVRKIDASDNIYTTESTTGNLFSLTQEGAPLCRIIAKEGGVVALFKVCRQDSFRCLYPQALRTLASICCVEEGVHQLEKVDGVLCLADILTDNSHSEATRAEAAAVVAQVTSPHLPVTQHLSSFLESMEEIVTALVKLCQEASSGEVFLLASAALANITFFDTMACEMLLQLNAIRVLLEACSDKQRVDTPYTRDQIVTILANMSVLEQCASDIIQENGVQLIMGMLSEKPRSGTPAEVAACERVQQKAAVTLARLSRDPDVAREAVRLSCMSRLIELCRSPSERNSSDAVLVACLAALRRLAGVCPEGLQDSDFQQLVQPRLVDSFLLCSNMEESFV

T2: Drosophila LGN (Pins) TPR domain, residues 25-406 (Drosophila, UniProt Q9VB22 25-406)
T2 construct: Pins (fly orthologue of LGN), Drosophila, residues 25-406 (TPR domain); Monomeric in isolation; two copies stand in the 2:2 tetramer with Insc^ASYM; also called dLGN^TPR; dLGN^25–406
T2 sequence (looked up): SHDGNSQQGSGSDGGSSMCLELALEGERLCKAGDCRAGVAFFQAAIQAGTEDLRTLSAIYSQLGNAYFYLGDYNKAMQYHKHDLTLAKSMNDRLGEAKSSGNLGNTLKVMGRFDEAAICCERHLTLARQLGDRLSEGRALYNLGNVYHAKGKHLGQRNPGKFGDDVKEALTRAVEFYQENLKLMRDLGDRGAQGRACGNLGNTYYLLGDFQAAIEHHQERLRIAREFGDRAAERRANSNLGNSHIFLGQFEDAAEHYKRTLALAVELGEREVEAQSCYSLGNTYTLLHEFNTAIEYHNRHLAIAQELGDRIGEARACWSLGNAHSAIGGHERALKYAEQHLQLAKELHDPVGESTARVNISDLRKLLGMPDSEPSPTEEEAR

B1: human Par3^PDZ123 (residues 269-685), GST-tag removed (domain or fragment, UniProt Q8TEW0 269-685, looked up)
chain: DDMVKLVEVPNDGGPLGIHVVPFSARGGRTLGLLVKRLEKGGKAEHENLFRENDCIVRINDGDLRNRRFEQAQHMFRQAMRTPIIWFHVVPAANKEQYEQLSQSEKNNYYSSRFSPDSQYIDNRSVNSAGLHTVQRAPRLNHPPEQIDSHSRLPHSAHPSGKPPSAPASAPQNVFSTTVSSGYNTKKIGKRLNIQLKKGTEGLGFSITSRDVTIGGSAPIYVKNILPRGAAIQDGRLKAGDRLIEVNGVDLVGKSQEEVVSLLRSTKMEGTVSLLVFRQEDAFHPRELNAEPSQMQIPKETKAEDEDIVLTPDGTREFLTFEVPLNDSGSAGLGVSVKGNRSKENHADLGIFVKSIINGGAASKDGRLRVNDQLIAVNGESLLGKTNQDAMETLRRSMSTEGNKRGMIQLIVARRIS
notes: human Par3, residues 269-685 (the three PDZ domains), Uniprot Q8TEW0
B2: Drosophila Inscuteable asymmetric domain, residues 283-623 (domain or fragment, UniProt Q24367 283-623, looked up)
chain: SLRFTASTSTPKSGSKIAKRGKKHPEPVASWMSEQRWAGEPEVMCTLQHKSIAQEAYKNYTITTSAVCKLVRQLQQQALSLQVHFERSERVLSGLQASSLPEALAGATQLLSHLDDFTATLERRGVFFNDAKIERRRYEQHLEQIRTVSKDTRYSLERQHYINLESLLDDVQLLKRHTLITLRLIFERLVRVLVISIEQSQCDLLLRANINMVATLMNIDYDGFRSLSDAFVQNEAVRTLLVVVLDHKQSSVRALALRALATLCCAPQAINQLGSCGGIEIVRDILQVESAGERGAIERREAVSLLAQITAAWHGSEHRVPGLRDCAESLVAGLAALLQPE
notes: Inscuteable, Drosophila, residues 283-623 (asymmetric domain: Insc^PEPT stretch, four-helix bundle, three Armadillo repeats); Two copies stand in the 2:2 tetramer with dLGN^TPR; also called Insc^ASYM; Insc-A^ASYM

Legend:
[1] = molecular target: T1, human Insc of the Insc:LGN:Gαi complex; assay: SEC; Par3^PDZ123 mixed in molar excess with purified Insc:LGN:Gαi, SDS-PAGE of fractions; conditions: both partners purified
[2] = molecular target: the molecule itself; assay: crystal structure; dLGN 25-406:Insc 283-623 complex, 3.4 Å, space group P212121, four tetramers in the asymmetric unit
[3] = molecular target: T2, Drosophila LGN (Pins) TPR domain, …; assay: SEC-MALS; static light scattering of the dLGN^TPR:Insc^ASYM complex eluting from a size-exclusion column; conditions: both partners purified

Row | Binder | binding result [1] | binding result [2] | stoichiometry N [3]
1 | B1 | binds |  | 
2 | B2 |  | binds | 1 Insc per dLGN (2:2)
